Changes are numbered by the printed parent chain. Numbers in names are those of the source.
B1: GPC3 ERY22-dBBDu_189/L119 (bispecific antibody, human IgG1, kappa, L234A L235A, N297A)
heavy 1: DIVMTQSPLSLPVTPGEPASISCRSSQSLVHSNRNTYLHWYQQKPGQAPRLLIYKVSNRFSGVPDRFSGSGSGTDFTLKISRVEAEDVGVYYCSQNTHVPPTFGQGTKLEIKSSASTKGPSVFPLAPSSKSTSGGTAALGCLVKDYFPEPVTVSWNSGALTSGVHTFPAVLQSSGLYSLSSVVTVPSSSLGTQTYICNVNHKPSNTKVDKKVEPKSCDKTHTCPPCPAPEAAGGPSVFLFPPKPKDTLMISRTPEVTCVVVDVSHEDPEVKFNWYVDGVEVHNAKTKPREEQYASTYRVVSVLTVLHQDWLNGKEYKCKVSNKALPAPIEKTISKAKGQPREPQVCTLPPSRDELTKNQVSLWCLVKGFYPSDIAVEWESNGQPENNYKTTPPVLDSDGSFFLYSKLTVDKSRWQQGNVFSCSVMHEALHNHYTQKSLSLSPHHHHHHHH
light 1: QVQLVQSGAEVKKPGASVKVSCKASGYTFTDYEMHWIRQPPGQGLEWIGAIDPKTGDTAYSQKFKGRVTLTADKSTSTAYMELSSLTSEDTAVYYCTRFYSYTYWGQGTLVTVSSASVAAPSVFIFPPSDEQLKSGTASVVCLLNNFYPREAKVQWKVDNALQSGNSQESVTEQDSKDSTYSLSSTLTLSKADYEKHKVYACEVTHQGLSSPVTKSFNRGEC
heavy 2: QVQLVESGGGLVQPGRSLRLSCAASGFTFSNAWMHWVRQAPGKGLEWIAQIKDRSNQYATYYAPSVKGRFTISRDDSKNSIYLQMNSLKTEDTAVYYCHYVHYAQASSLLPSFGVDAWGQGTTVTVSSASTKGPSVFPLAPSSKSTSGGTAALGCLVKDYFPEPVTVSWNSGALTSGVHTFPAVLQSSGLYSLSSVVTVPSSSLGTQTYICNVNHKPSNTKVDKKVEPKSCDKTHTCPPCPAPEAAGGPSVFLFPPKPKDTLMISRTPEVTCVVVDVSHEDPEVKFNWYVDGVEVHNAKTKPREEQYASTYRVVSVLTVLHQDWLNGKEYKCKVSNKALPAPIEKTISKAKGQPREPQVYTLPPSRCELTKNQVSLSCAVKGFYPSDIAVEWESNGQPENNYKTTPPVLDSDGSFFLVSKLTVDKSRWQQGNVFSCSVMHEALHNHYTQKSLSLSPDYKDDDDK
light 2: DIVMTQSPLSLPVTPGEPASISCTASQELVHINRFIFLHWYQQKPGQAPRLLIYKVSNRFIGVPDRFSGSGSGTDFTLKISRVEAEDVGVYYCAQGSQVPFTFGQGTKLEIKRTVAAPSVFIFPPSDEQLKSGTASVVCLLNNFYPREAKVQWKVDNALQSGNSQESVTEQDSKDSTYSLSSTLTLSKADYEKHKVYACEVTHQGLSSPVTKSFNRGEC
B2: GLS3000 V94P one-amino acid altered one-arm antibody (CE115HA000-pE22Hh / Kn010G3 / GLS3000 V94P-kappa) (antibody, human IgG1, kappa, L234A L235A, N297A, name in Kabat numbering)
heavy: QVQLVESGGGVVQPGRSLRLSCAASGFTFSNAWMHWVRQAPGKGLEWVAQIKAKSNNYATYYAESVKGRFTISRDDSKNSLYLQMNSLKTEDTAVYYCRYVHYGAYYGVDAWGQGTTVTVSSASTKGPSVFPLAPSSKSTSGGTAALGCLVKDYFPEPVTVSWNSGALTSGVHTFPAVLQSSGLYSLSSVVTVPSSSLGTQTYICNVNHKPSNTKVDKKVEPKSCDKTHTCPPCPAPEAAGGPSVFLFPPKPKDTLMISRTPEVTCVVVDVSHEDPEVKFNWYVDGVEVHNAKTKPREEQYASTYRVVSVLTVLHQDWLNGKEYKCKVSNKALPAPIEKTISKAKGQPREPQVYTLPPSRCELTKNQVSLSCAVKGFYPSDIAVEWESNGQPENNYKTTPPVLDSDGSFFLVSKLTVDKSRWQQGNVFSCSVMHEALHNHYTQKSLSLSPDYKDDDDK
chain: EPKSSDKTHTCPPCPAPELLGGPSVFLFPPKPKDTLMISRTPEVTCVVVDVSHEDPEVKFNWYVDGVEVHNAKTKPREEQYNSTYRVVSVLTVLHQDWLNGKEYKCKVSNKALPAPIEKTISKAKGQPREPQVCTLPPSRDELTKNQVSLWCLVKGFYPSDIAVEWESNGQPENNYKTTPPVLDSDGSFFLYSKLTVDKSRWQQGNVFSCSVMHEALHNRYTQKSLSLSP
light: DIVMTQSPLSLPVTPGEPASISCRSSQSLVHSNRNTYLHWYQQKPGQAPRLLIYKVSNRFSGVPDRFSGSGSGTDFTLKISRVEAEDVGVYYCGQGTQPPYTFGQGTKLEIKRTVAAPSVFIFPPSDEQLKSGTASVVCLLNNFYPREAKVQWKVDNALQSGNSQESVTEQDSKDSTYSLSSTLTLSKADYEKHKVYACEVTHQGLSSPVTKSFNRGEC
notes: One-arm antibody; substitution position in Kabat numbering; also called L chain altered form, Kabat 94 V to P
B3: GLS3000 G91Y one-amino acid altered one-arm antibody (CE115HA000-pE22Hh / Kn010G3 / GLS3000 G91Y-kappa) (antibody, human IgG1, kappa, L234A L235A, N297A, name in Kabat numbering)
heavy: B2 heavy
chain: B2 chain
light: B2 light with G96Y, P99V
notes: One-arm antibody; substitution position in Kabat numbering; also called L chain altered form, Kabat 91 G to Y
B4: GLS3000 G89Q one-amino acid altered one-arm antibody (CE115HA000-pE22Hh / Kn010G3 / GLS3000 G89Q-kappa) (antibody, human IgG1, kappa, L234A L235A, N297A, name in Kabat numbering)
heavy: B2 heavy
chain: B2 chain
light: B2 light with G94Q, P99V
notes: One-arm antibody; substitution position in Kabat numbering; also called L chain altered form, Kabat 89 G to Q
B5: GLS3000 G89Y one-amino acid altered one-arm antibody (CE115HA000-pE22Hh / Kn010G3 / GLS3000 G89Y-kappa) (antibody, human IgG1, kappa, L234A L235A, N297A, name in Kabat numbering)
heavy: B2 heavy
chain: B2 chain
light: B2 light with G94Y, P99V
notes: One-arm antibody; substitution position in Kabat numbering; also called L chain altered form, Kabat 89 G to Y
B6: GLS3000 G89T one-amino acid altered one-arm antibody (CE115HA000-pE22Hh / Kn010G3 / GLS3000 G89T-kappa) (antibody, human IgG1, kappa, L234A L235A, N297A, name in Kabat numbering)
heavy: B2 heavy
chain: B2 chain
light: B2 light with G94T, P99V
notes: One-arm antibody; substitution position in Kabat numbering; also called L chain altered form, Kabat 89 G to T
B7: GLS3000 G91P one-amino acid altered one-arm antibody (CE115HA000-pE22Hh / Kn010G3 / GLS3000 G91P-kappa) (antibody, human IgG1, kappa, L234A L235A, N297A, name in Kabat numbering)
heavy: B2 heavy
chain: B2 chain
light: B2 light with G96P, P99V
notes: One-arm antibody; substitution position in Kabat numbering; also called L chain altered form, Kabat 91 G to P
B8: GLS3000 G89W one-amino acid altered one-arm antibody (CE115HA000-pE22Hh / Kn010G3 / GLS3000 G89W-kappa) (antibody, human IgG1, kappa, L234A L235A, N297A, name in Kabat numbering)
heavy: B2 heavy
chain: B2 chain
light: B2 light with G94W, P99V
notes: One-arm antibody; substitution position in Kabat numbering; also called L chain altered form, Kabat 89 G to W
B9: GLS3000 G89P one-amino acid altered one-arm antibody (CE115HA000-pE22Hh / Kn010G3 / GLS3000 G89P-kappa) (antibody, human IgG1, kappa, L234A L235A, N297A, name in Kabat numbering)
heavy: B2 heavy
chain: B2 chain
light: B2 light with G94P, P99V
notes: One-arm antibody; substitution position in Kabat numbering; also called L chain altered form, Kabat 89 G to P

What was measured:
[1] = biological target: human CD137 expressed constitutively on the B cell strain HDLM-2 (human, UniProt Q07011 24-255); assay: cell-based or functional assay
[2] = biological target: T1, CD3 epsilon homodimer protein (UniProt P07766 23-126); assay: SPR Biacore T200, CD3 epsilon homodimer immobilised on CM4, one-arm antibody as analyte, single-cycle kinetics; reference unaltered GLS3000 antibody;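 also: CD3 epsilon homodimer attached to the CM4 chip via amine coupling, measured at 25 °C with HBS-EP+ as running buffer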
T1 construct: also called CD3 (CD3 epsilon)
T1 sequence (P07766 23-126): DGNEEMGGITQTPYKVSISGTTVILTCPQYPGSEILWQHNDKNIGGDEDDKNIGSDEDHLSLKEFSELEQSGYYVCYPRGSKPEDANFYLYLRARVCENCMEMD
Description: An appropriate amount of CD3 epsilon homodimer protein was immobilized onto Sensor chip CM4 (GE Healthcare Japan Corp.) by the amine coupling method. Then, the antibody having an appropriate concentration was injected thereto as an analyte and allowed to interact with the CD3 epsilon homodimer protein on the sensor chip. Then, the sensor chip was regenerated by the injection of 10 mmol/L glycine-HCl (pH 1.5). The assay was conducted at 25 degrees C., and HBS-EP+(GE Healthcare Japan Corp.) was used as a running buffer. […] Each parameter was calculated using Biacore T200 Evaluation Software (GE Healthcare Japan Corp.).
Specifically, when the amount of the GLS3000-containing antibody bound was defined as X and the amount of the L chain one-amino acid altered form bound was defined as Y, a value of Z (ratio of amounts bound)=Y/X was used.

human CD137 expressed constitutively on the B cell strain HDLM-2, sequence (Q07011 24-255): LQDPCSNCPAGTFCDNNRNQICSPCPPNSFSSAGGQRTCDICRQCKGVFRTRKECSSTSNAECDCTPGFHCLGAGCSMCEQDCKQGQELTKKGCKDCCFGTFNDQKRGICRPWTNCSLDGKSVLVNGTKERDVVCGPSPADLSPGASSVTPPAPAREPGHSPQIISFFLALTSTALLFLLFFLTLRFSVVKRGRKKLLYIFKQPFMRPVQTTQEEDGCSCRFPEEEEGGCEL

Binder | dissociation constant KD(M) ratio of L chain altered form to GLS3000 [2] [ratio] | also measured
B1 |  | Agonistic activity compared to B, antibody 6 µg/mL [1]: 6.92%; Agonistic activity compared to B, antibody 30 µg/mL [1]: 20.4%; Agonistic activity compared to Ctrl, antibody 6 µg/mL [1]: 24%; Agonistic activity compared to Ctrl, antibody 30 µg/mL [1]: 77.3%; hIL-6 (pg/mL), antibody 6 µg/mL [1]: 1260 pg/mL; hIL-6 (pg/mL), antibody 30 µg/mL [1]: 1610 pg/mL
B2 | 1.1 | 
B3 | 33.8 | 
B4 | 2.11 | 
B5 | 1.12 | 
B6 | 1.1 | 
B7 | 23.1 | 
B8 | 2.2 | 
B9 | 1.8 | 

Reference: patent US20240270846A1 (published 2024)
